How the values were obtained:
Details in all cases: Brevibacillus brevis
[1] = substrate: CC(=O)NCCSC(=O)[C@H](CC(C)C)NC(=O)[C@H](CCCN)NC(=O)[C@@H](NC(=O)[C@H](Cc1ccc(O)cc1)NC(=O)[C@H](CCC(N)=O)NC(=O)[C@H](CC(N)=O)NC(=O)[C@@H](Cc1ccccc1)NC(=O)[C@H](CC(N)=O)NC(=O)[C@@H]1CCCN1C(=O)[C@H](N)Cc1ccccc1)C(C)C; test: (§1) Apparent kinetic constant (Km) determined for tyrocidine thioesterase amplified from Bacillus brevis (ATCC8185)
[2] = substrate: CC(=O)NCCSC(=O)[C@H](CC(C)C)NC(=O)[C@H](CCCN)NC(=O)[C@@H](NC(=O)[C@H](Cc1ccc(O)cc1)NC(=O)[C@H](CCC(N)=O)NC(=O)[C@@H](NC(=O)[C@@H](Cc1ccccc1)NC(=O)[C@H](Cc1ccccc1)NC(=O)[C@@H]1CCCN1C(=O)[C@H](N)Cc1ccccc1)C(C)C)C(C)C; test: as §1
[3] = substrate: CC[C@H](C)[C@H](NC(=O)[C@H](Cc1ccccc1)NC(=O)[C@@H]1CCCN1C(=O)[C@H](N)Cc1ccccc1)C(=O)N[C@@H](CC(N)=O)C(=O)N[C@@H](CCC(N)=O)C(=O)N[C@@H](Cc1ccc(O)cc1)C(=O)N[C@H](C(=O)N[C@@H](CCCN)C(=O)N[C@@H](CC(C)C)C(=O)SCCNC(C)=O)C(C)C; test: as §1
[4] = substrate: CC(=O)NCCSC(=O)[C@H](CC(C)C)NC(=O)[C@H](CCCN)NC(=O)[C@@H](NC(=O)[C@H](Cc1ccc(O)cc1)NC(=O)[C@@H](NC(=O)[C@H](CC(N)=O)NC(=O)[C@@H](Cc1ccccc1)NC(=O)[C@H](Cc1ccccc1)NC(=O)[C@@H]1CCCN1C(=O)[C@H](N)Cc1ccccc1)C(C)C)C(C)C; test: as §1
[5] = substrate: CC(=O)NCCSC(=O)[C@H](CC(C)C)NC(=O)[C@H](CCCN)NC(=O)[C@H](CCCN=C(N)N)NC(=O)[C@H](Cc1ccc(O)cc1)NC(=O)[C@H](CCC(N)=O)NC(=O)[C@H](CC(N)=O)NC(=O)[C@@H](Cc1ccccc1)NC(=O)[C@H](Cc1ccccc1)NC(=O)[C@@H]1CCCN1C(=O)[C@H](N)Cc1ccccc1; test: as §1

B1: Thioesterase GrsT homolog tycF (Brevibacillus brevis), O30412 (protein)
chain: MKLFCFPYAGGLPGIYYSWKSRLPPTFLEIDAFEVRPHIPQPNRDVFLPTSFYELLEDVCDRITPALTETPFAFFGHSMGGLVAFELTRKLMQKGAPLPQHLFLSASRAPHAYGKLAKTYNLPHDEFVEALRKLGGTPDDVLENQELLELFLPILRADFQAVQTYEMNPDLPRQVPVNMTVLYGTEDTIALEDIWAWRDYCQGACQFFPVSGGHFFIHHQTSPILEIIQNVLKEEKTVAIHSSF
Work on B1 yielded a Km [1] of 172 µM, a Km [2] of 25 µM and a Km [3] of 32 µM. For the same protein, the Km [4] was 54 µM and the Km [5] was 33 µM.

From ChEMBL document CHEMBL1135258, “Substrate spectrum of tyrocidine thioesterase probed with randomized peptide N-acetylcysteamine thioesters” (Bioorg Med Chem Lett, 2002)
